Test results from publication PMC2661965.
Blank lines part the entries; values can stand above or below the molecule they belong to.

Tests used:
Test in all cases: BiFC
V2-Trap-80 = V2-Trap-80 (UniProt Q8VCD5); details: HEK-293 cells, co-transfection; parent: est. 72; read off a plot
p65-V2 = p65-V2 (UniProt Q04207); details: HEK-293 cells, co-transfection; parent: est. 740; read off a plot
p65-V2, Q04207 = molecular target: T1, p65-V2, Q04207; details: chain shown with the change; HEK-293 cells, co-transfection; parent: est. 740; read off a plot
T1 chain: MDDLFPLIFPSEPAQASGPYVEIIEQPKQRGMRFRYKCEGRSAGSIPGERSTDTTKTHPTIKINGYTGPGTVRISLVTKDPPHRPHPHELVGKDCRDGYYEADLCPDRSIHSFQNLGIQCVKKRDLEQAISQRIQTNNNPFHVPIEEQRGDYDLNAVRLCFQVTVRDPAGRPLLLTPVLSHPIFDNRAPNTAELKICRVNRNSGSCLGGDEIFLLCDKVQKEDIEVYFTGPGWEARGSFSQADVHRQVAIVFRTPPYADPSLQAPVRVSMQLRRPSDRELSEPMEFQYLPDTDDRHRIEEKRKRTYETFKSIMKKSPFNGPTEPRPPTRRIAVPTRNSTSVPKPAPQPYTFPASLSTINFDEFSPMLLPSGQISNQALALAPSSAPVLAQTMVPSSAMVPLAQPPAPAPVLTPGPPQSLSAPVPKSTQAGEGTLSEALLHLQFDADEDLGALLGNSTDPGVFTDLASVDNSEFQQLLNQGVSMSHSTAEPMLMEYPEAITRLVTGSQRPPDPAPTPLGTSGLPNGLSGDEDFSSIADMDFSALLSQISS

V2-Trap-80, Q8VCD5 = molecular target: T2, V2-Trap-80, Q8VCD5; details: chain shown with the change; HEK-293 cells, co-transfection; parent: est. 72; read off a plot
T2 chain: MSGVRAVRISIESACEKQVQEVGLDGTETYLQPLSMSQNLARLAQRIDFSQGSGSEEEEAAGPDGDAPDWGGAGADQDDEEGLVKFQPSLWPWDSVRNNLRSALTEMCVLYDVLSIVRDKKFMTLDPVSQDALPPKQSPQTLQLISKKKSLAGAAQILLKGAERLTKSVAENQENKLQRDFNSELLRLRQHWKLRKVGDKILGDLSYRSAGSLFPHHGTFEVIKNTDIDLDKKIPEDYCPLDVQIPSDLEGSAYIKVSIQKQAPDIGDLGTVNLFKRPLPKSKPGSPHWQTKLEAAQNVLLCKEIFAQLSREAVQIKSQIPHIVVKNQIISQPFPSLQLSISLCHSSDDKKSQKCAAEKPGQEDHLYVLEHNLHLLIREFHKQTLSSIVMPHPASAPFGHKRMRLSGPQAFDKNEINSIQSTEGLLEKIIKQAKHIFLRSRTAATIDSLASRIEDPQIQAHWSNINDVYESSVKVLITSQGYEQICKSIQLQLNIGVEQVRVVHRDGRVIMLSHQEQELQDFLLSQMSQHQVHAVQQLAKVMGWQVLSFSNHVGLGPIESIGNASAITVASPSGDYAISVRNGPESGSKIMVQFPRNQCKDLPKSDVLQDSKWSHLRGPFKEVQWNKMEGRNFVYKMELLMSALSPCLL

- response (V2-Trap-80): 40 % wt p65
- response (p65-V2): 550 % wt p65
Molecule: p65ΔTA2 fused to Venus fragment 1 (from UniProt Q04207) TA1 mut528-534

- response (V2-Trap-80): 38 % wt p65
- response (p65-V2): 640 % wt p65
Molecule: p65ΔTA2 fused to Venus fragment 1 (from UniProt Q04207) TA1 mut535-541

- response (p65-V2, Q04207): 600 % wt p65
- response (V2-Trap-80, Q8VCD5): 35 % wt p65
B1: p65ΔTA2 fused to Venus fragment 1, Q04207 D539A; F540A (protein)
chain: MDDLFPLIFPSEPAQASGPYVEIIEQPKQRGMRFRYKCEGRSAGSIPGERSTDTTKTHPTIKINGYTGPGTVRISLVTKDPPHRPHPHELVGKDCRDGYYEADLCPDRSIHSFQNLGIQCVKKRDLEQAISQRIQTNNNPFHVPIEEQRGDYDLNAVRLCFQVTVRDPAGRPLLLTPVLSHPIFDNRAPNTAELKICRVNRNSGSCLGGDEIFLLCDKVQKEDIEVYFTGPGWEARGSFSQADVHRQVAIVFRTPPYADPSLQAPVRVSMQLRRPSDRELSEPMEFQYLPDTDDRHRIEEKRKRTYETFKSIMKKSPFNGPTEPRPPTRRIAVPTRNSTSVPKPAPQPYTFPASLSTINFDEFSPMLLPSGQISNQALALAPSSAPVLAQTMVPSSAMVPLAQPPAPAPVLTPGPPQSLSAPVPKSTQAGEGTLSEALLHQLLNQGVSMSHSTAEPMLMEYPEAITRLVTGSQRPPDPAPTPLGTSGLPNGLSGDEDFSSIADMAASALLSQISS
